The source of these data is US20240108766A1 (Bayer, published 2024).

In experiment [1] the target is T1, human LRRC15 extracellular domain with C-terminal His tag (human, UniProt Q8TF66 22-538).
T1 construct: Recombinant, made in HEK293; the entry holds the extracellular domain and the His tag; SPR analyte; also called TPP-1545; hLRRC15 CT-His
T1 sequence: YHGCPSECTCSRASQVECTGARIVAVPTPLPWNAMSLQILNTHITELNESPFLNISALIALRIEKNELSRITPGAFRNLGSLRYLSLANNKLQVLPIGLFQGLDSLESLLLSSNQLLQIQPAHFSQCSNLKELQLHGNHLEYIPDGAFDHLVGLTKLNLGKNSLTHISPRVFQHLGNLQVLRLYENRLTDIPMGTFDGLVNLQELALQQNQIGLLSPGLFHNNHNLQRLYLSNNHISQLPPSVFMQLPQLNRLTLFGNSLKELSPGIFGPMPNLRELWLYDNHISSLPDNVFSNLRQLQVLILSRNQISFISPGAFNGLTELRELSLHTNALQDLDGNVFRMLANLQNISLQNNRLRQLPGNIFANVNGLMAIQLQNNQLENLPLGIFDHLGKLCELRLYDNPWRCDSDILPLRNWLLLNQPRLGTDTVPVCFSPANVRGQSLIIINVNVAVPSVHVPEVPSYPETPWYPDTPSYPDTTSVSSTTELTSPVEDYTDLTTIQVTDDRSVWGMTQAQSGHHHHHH
Put plainly: SPR Biacore T200, 25°C, antibody captured, LRRC15 analyte. On the procedure:
(§1) To assess the binding kinetics and affinity of anti-LRRC15 antibodies as well as their species cross-reactivity profile, binding assays were conducted using surface plasmon resonance (SPR). Binding assays were performed on a Biacore T200 instrument at 25° C. using assay buffer HBS EP+, 1 mg/ml BSA, 300 mM NaCl, 0.05% NaN3. Antibodies were captured via anti-human Fc IgGs covalently amine coupled to a CM5 sensor chip and human, mouse and cynomolgus LRRC15 were used as analytes in a concentration series from 1.56-200 nM in multi cycle kinetics mode. […] Obtained sensorgrams were fitted to a 1:1 Langmuir binding model to derive kinetic data.
On the technique in general: SPR reads the build-up and loss of mass on a sensor chip optically.

Experiment [2] deals with T2, cynomolgus (Macaca fascicularis) LRRC15 extracellular domain with C-terminal His tag (cynomolgus monkey (Macaca fascicularis), UniProt Q8TF66 22-538 (human entry)).
T2 construct: Recombinant, made in HEK293; the entry holds the extracellular domain and the His tag; SPR analyte; also called TPP-9046
T2 chain: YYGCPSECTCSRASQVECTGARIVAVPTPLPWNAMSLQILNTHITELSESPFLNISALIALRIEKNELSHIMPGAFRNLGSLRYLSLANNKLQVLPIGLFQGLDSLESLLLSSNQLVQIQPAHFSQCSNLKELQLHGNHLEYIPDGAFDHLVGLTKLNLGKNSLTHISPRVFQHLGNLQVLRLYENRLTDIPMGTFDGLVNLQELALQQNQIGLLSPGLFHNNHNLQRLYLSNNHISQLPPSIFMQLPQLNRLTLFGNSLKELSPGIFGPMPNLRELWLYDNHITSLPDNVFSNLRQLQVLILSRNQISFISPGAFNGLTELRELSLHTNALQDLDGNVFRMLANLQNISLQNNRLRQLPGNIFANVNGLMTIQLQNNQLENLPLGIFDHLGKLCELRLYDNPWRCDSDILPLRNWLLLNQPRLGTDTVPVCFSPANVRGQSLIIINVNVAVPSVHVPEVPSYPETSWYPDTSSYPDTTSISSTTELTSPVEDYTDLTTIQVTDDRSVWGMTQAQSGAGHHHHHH
The description is as above. On the procedure: as §1

Experiment [3] has as its target T1, human LRRC15 extracellular domain with …. Put plainly: SPR (Example 6), overview table, repeats Table 9; head prints [M^-1]. On the procedure:
as §1

For experiment [4], the target named is T2, cynomolgus (Macaca fascicularis) LRRC15 …. The description is as above. On the procedure:
as §1

The target of experiment [5] is T1, human LRRC15 extracellular domain with …. Put plainly: SPR at 10-37°C (Example 3). How it is done:
(§2) To assess if anti-LRRC-15 antibodies show a difference in binding at different temperatures, binding assays were conducted using surface plasmon resonance (SPR). Binding assays were performed on a Biacore T200 instrument at temperatures of 10° C., 20° C., 25° C. and 37° C. with assay buffer HBS EP+, 1 mg/ml BSA (bovine serum albumine), 300 mM NaCl, 0.05% NaN₃. Antibodies were captured via anti-human Fc IgGs covalently amine coupled to a CM5 sensor chip and human LRRC15 was used as an analyte in a concentration series from 1.56-200 nM in multi cycle kinetics mode. Pre-experiments were conducted to have an equal capture level at each temperature. Obtained sensorgrams were fitted to a 1:1 Langmuir binding model to derive kinetic data.

Experiment [6] has the same target. Put plainly: calculated from SPR kd, 10°C. How it is done: as §2
Experiment [7] has the same target. Put plainly: calculated from SPR kd, 20°C. How it is done: as §2
Experiment [8] has the same target. Put plainly: calculated from SPR kd, 25°C. How it is done: as §2
Experiment [9] has the same target. Put plainly: SPR thermodynamics (van't Hoff/Eyring), 10-37°C. On the procedure:
as §2, with “Thermodynamics help to explain why an interaction is happening and what the driving forces for the interaction are. To” for “To”, “the thermodynamic parameters for anti-LRRC15” for “if anti-LRRC-15”, “antibodies” for “antibodies show a difference in binding at different temperatures,”, “BSA,” for “BSA (bovine serum albumine),”, “NaN3.” for “NaN₃.”, “data. Thermodynamic parameters were obtained using the integrated thermodynamics wizard in the Biacore T200 software. Van′t Hoff and Eyring plots were calculated and plotted and thermodynamic parameters were derived.” for “data.”

Experiment [10] shares this target. Put plainly: SPR Biacore T200, antibody captured, LRRC15 analyte, 10°C. How it is done:
as §2

Experiment [11] has the same target. Put plainly: SPR Biacore T200, antibody captured, LRRC15 analyte, 20°C. On the procedure: as §2
Experiment [12] shares this target. Put plainly: SPR Biacore T200, antibody captured, LRRC15 analyte, 25°C. On the procedure:
as §2

Experiment [13] shares this target. Put plainly: SPR Biacore T200, antibody captured, LRRC15 analyte, 37°C. On the procedure: as §2
The target is the same in experiment [14]. Put plainly: calculated from SPR kd, 37°C. How it is done:
as §2

B1: TPP-17405 (antibody, human IgG1, kappa, V domains shown)
VH: EVQLVQSGAEVKKPGASVKVSCKASGYKFSSYWIEWVKQAPGQGLEWIGEILPGSDTTNYNEKFKDRATFTSDTSINTAYMELSRLRSDDTAVYYCARDRGNYRAWFQYWGQGTLVTVSS
VL: DIQMTQSPSSLSASVGDRVTITCRASQRISSYLNWYQQKPGGAPKFLIYYASSLQSGVPSRFSGSGSGTDYTLTISSLQPEDFATYYCDQGLELPWTFGGGTKVEIKR
notes: also called 438H-M345-F05-hIgG1Kappa
As to B1, the Kd in experiment [1] came to 0.86 nM; in experiment [2], 0.78 nM; in experiment [3], 0.86 nM; in [4] it was 0.78 nM.

B2: TPP-17418 (antibody, human IgG1, kappa, V domains shown)
VH: EVQLVQSGAEVKKPGASVKVSCKASGYKFSSYWIEWVKQAPGQGLEWIGEILPGSDWTNYNEKFKDRATFTSDTSINTAYMELSRLRSDDTAVYYCARDRGNYRAWFQYWGQGTLVTVSS
VL: DIQMTQSPSSLSASVGDRVTITCRASQSISSYLNWYQQKPGGAPKFLIYYASSLQSGVPSRFSGSGSGTDYTLTISSLQPEDFATYYCQQGFSLPWTFGGGTKVEIKR
notes: also called 438H-M308-H05_B-hIgG1Kappa
Regarding B2, the dissociation constant Kd in experiment [1] is 1.1 nM; in experiment [2] it was 0.99 nM; in experiment [3], 1.1 nM; in experiment [4], 0.99 nM.

B3: TPP-17419 (antibody, human IgG1, kappa, V domains shown)
VH: EVQLVQSGAEVKKPGASVKVSCKASGYKFSSYWIEWVKQAPGQGLEWIGEILPGSDWTNYNEKFKDRATFTSDTSINTAYMELSRLRSDDTAVYYCARDRGNYRAWFQYWGQGTLVTVSS
VL: DIQMTQSPSSLSASVGDRVTITCRISQSISSYLNWYQQKPGGAPKFLIYYASSLQSGVPSRFSGSGSGTDYTLTISSLQPEDFATYYCQQGLRLPWTFGGGTKVEIKR
notes: also called 438H-M307-H07-hIgG1Kappa
In the case of B3, the Kd in experiment [1] was 3.4 nM; in [2], 2.5 nM; in experiment [3], 3.4 nM; in experiment [4], 2.5 nM.

B4: TPP-17073 (antibody, human IgG1, kappa, V domains shown)
VH: EVQLLESGGGLVQPGGSLRLSCAASGFTFSGYMMSWVRQAPGKGLEWVSGIYPSAGYTLYADSVKGRFTISRDNSKNTLYLQMNSLRAEDTAVYYCAREKAADLFGSYSEALDYWGQGTLVTVSS
VL: DIQMTQSPDSLSASVGDRVTITCRASQDVGSWLAWYQQKPGKAPKLLIFAASYLESGIPSRFSGSGSGTDFTLTISSLQPEDFATYYCQQANGFPLTFGGGTKVEIKR
notes: also called 438H-M113-N15-hIgG1
As for B4, the equilibrium dissociation constant (Kd) in experiment [1] amounted to 0.21 nM; in [2] it was 0.18 nM; in experiment [3] it was 0.21 nM; in experiment [4], 0.18 nM.

B5: TPP-17074 (antibody, human IgG1, kappa, V domains shown)
VH: EVQLLESGGGLVQPGGSLRLSCAASGFTFSGYMMSWVRQAPGKGLEWVSGIYPSGGYALYADSVKGRFTISRDNSKNTLYLQMNSLRAEDTAVYYCAREKAADLFGSYSEALDYWGQGTLVTVSS
VL: DIQMTQSPDSLSASVGDRVTITCRASQDVGSWLAWYQQKPGKAPKLLIFAASYLESGIPSRFSGSGSGTDFTLTISSLQPEDFATYYCQQANGFPLTFGGGTKVEIKR
notes: also called 438H-M161-K22-hIgG1
For the molecule B5, in experiment [5], the “Temperature dependent loss in binding affinity” value was found to be 33.3 fold. For the same molecule, the “Complex Half Life” value in experiment [6] is 642 min; in experiment [7] it was 189 min; in experiment [8] it was 96.3 min. For the same molecule, in experiment [9], the “-TΔS” value turned out to be 40 kJ/mol. The “ΔG^0” value in experiment [9] is -54 kJ/mol. Further, the “ΔH^0” value in [9] is -95 kJ/mol. Also, the dissociation constant Kd in experiment [10] amounted to 0.057 nM; in experiment [11], 0.14 nM; in experiment [12], 0.22 nM; in experiment [13], 1.9 nM; in [1], 0.19 nM; in experiment [3], 0.19 nM.

B6: TPP-14392 (antibody, human IgG1, kappa, V domains shown)
VH: EVQLLESGGGLVQPGGSLRLSCAASGFTFSGYMMSWVRQAPGKGLEWVSGIYPSPGYTYYADSVKGRFTISRDNSKNTLYLQMNSLRAEDTAVYYCAREKASDLSGSYSEALDYWGQGTLVTVSS
VL: DIQMTQSPDSLSASVGDRVTITCRASQDVGSWLAWYQQKPGKAPKLLIFAASYLESGIPSRFSGSGSGTDFTLTISSLQPEDFATYYCQQANGFPLTFGGGTKVEIKR
notes: also called 13612-rec05-hIgG1Kappa
With B6, the “Temperature dependent loss in binding affinity” value in experiment [5] is 56.9 fold. Also, the “Complex Half Life” value in [6] is 192 min; in [7], 88.9 min; in experiment [8], 34 min; in experiment [14], 2.3 min. Moreover, in experiment [9], the “-TΔS” value stood at 64 kJ/mol. Further, the “ΔG^0” value in experiment [9] was -46 kJ/mol. Also, in [9], the “ΔH^0” value was -110 kJ/mol. Moreover, the Kd in experiment [11] was 2.9 nM; in experiment [12] it was 6.8 nM; in [13] it was 91 nM; in experiment [1], 5.9 nM; in experiment [2], 10 nM; in experiment [3], 5.9 nM. Moreover, the affinity in experiment [4], expressed as Kd, was 10 nM.

The Kd is a measure of binding affinity in units of concentration.
